Experimental data: IntAct's records for PubMed 18278056

B1: Insulin receptor substrate 2 (Mus musculus), P81122 (parent)
chain: MASAPLPGPPASAGGDGPNLNNNNNNNNHSVRKCGYLRKQKHGHKRFFVLRGPGTGGDEASAAGGSPPQPPRLEYYESEKKWRSKAGAPKRVIALDCCLNINKRADAKHKYLIALYTKDEYFAVAAENEQEQEGWYRALTDLVSEGRSGEGGSGTTGGSCSASLPGVLGGSAGAAGCDDNYGLVTPATAVYREVWQVNLKPKGLGQSKNLTGVYRLCLSARTIGFVKLNCEQPSVTLQLMNIRRCGHSDSFFFIEVGRSAVTGPGELWMQADDSVVAQNIHETILEAMKALKELFEFRPRSKSQSSGSSATHPISVPGARRHHHLVNLPPSQTGLVRRSRTDSLAATPPAAKCTSCRVRTASEGDGGAAGGAGTAGGRPMSVAGSPLSPGPVRAPLSRSHTLSAGCGGRPSKVTLAPAGGALQHSRSMSMPVAHSPPAATSPGSLSSSSGHGSGSYPLPPGSHPHLPHPLHHPQGQRPSSGSASASGSPSDPGFMSLDEYGSSPGDLRAFSSHRSNTPESIAETPPARDGSGGELYGYMSMDRPLSHCGRPYRRVSGDGAQDLDRGLRKRTYSLTTPARQRQVPQPSSASLDEYTLMRATFSGSSGRLCPSFPASSPKVAYNPYPEDYGDIEIGSHKSSSSNLGADDGYMPMTPGAALRSGGPNSCKSDDYMPMSPTSVSAPKQILQPRLAAALPPSGAAVPAPPSGVGRTFPVNGGGYKASSPAESSPEDSGYMRMWCGSKLSMENPDPKLLPNGDYLNMSPSEAGTAGTPPDFSAALRGGSEGLKGIPGHCYSSLPRSYKAPCSCSGDNDQYVLMSSPVGRILEEERLEPQATPGAGTFGAAGGSHTQPHHSAVPSSMRPSAIGGRPEGFLGQRCRAVRPTRLSLEGLQTLPSMQEYPLPTEPKSPGEYINIDFGEAGTRLSPPAPPLLASAASSSSLLSASSPASSLGSGTPGTSSDSRQRSPLSDYMNLDFSSPKSPKPSTRSGDTVGSMDGLLSPEASSPYPPLPPRPSTSPSSLQQPLPPAPGDLYRLPPASAATSQGPTAGSSMSSEPGDNGDYTEMAFGVAATPPQPIVAPPKPEGARVASPTSGLKRLSLMDQVSGVEAFLQVSQPPDPHRGAKVIRADPQGGRRRHSSETFSSTTTVTPVSPSFAHNSKRHNSASVENVSLRKSSEGSSTLGGGDEPPTSPGQAQPLVAVPPVPQARPWNPGQPGALIGCPGGSSSPMRRETSVGFQNGLNYIAIDVRGEQGSLAQSQPQPGDKNSWSRTRSLGGLLGTVGGSGASGVCGGPGTGALPSASTYASIDFLSHHLKEATVVKE

Variants of: B1
Conditions: with INSR

Effect of a mutation on the interaction, disrupting interaction:
Y621A
G629A
Y628F
I631A
Y624A
I633A
D627A

Variants of: B1
Conditions: with igf1r_human IGF1R

Effect of a mutation on the interaction, disrupting interaction:
Y628F
